Where a chain is given by its changes, count along the chain named.
T1: human IL-11 (AAH12506.1, Pro22-Leu199) (human, UniProt P20809 22-199)
T1 construct: The range Pro22-Leu199 counts on AAH12506.1; The Octet runs say only 'human IL-11'; also called hIL-11
T1 chain: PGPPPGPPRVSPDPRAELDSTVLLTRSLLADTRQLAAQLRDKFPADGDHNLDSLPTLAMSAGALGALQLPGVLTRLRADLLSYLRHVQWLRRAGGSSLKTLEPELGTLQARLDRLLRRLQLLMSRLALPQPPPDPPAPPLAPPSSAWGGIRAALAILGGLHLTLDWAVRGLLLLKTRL

T2: mIL11
T2 construct: also called murine IL-11 (NP_032376.1, Pro22-Leu199)
T2 cytokine chain: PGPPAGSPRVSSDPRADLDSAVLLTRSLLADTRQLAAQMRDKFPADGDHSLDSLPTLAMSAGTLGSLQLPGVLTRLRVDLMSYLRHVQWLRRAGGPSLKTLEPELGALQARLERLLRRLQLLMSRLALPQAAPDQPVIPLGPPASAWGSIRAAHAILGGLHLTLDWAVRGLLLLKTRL

T3: human IL-11Rα, full length, stably expressed on STAT3-Luc HEK293 cells (human, UniProt Q14626 23-422)
T3 sequence (looked up): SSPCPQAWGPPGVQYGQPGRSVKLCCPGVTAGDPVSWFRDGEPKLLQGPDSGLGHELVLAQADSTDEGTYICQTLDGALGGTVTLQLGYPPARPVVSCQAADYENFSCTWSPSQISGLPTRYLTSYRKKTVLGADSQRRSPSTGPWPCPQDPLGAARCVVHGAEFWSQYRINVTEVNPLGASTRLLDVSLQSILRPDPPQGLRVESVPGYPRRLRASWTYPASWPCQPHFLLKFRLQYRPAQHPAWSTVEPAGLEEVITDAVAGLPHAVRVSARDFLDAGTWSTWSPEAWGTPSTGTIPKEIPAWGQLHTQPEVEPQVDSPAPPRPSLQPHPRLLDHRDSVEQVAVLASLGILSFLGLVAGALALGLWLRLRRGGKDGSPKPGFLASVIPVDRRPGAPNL

B1: 3C6-mFc (antibody, mouse IgG1)
heavy: EVQLVQSGAEVKKPGASVKISCKASGYTFTDYNMDWVKQAPGQRLEWIGDINPHNGGPIYNQKFTGRATLTVDKSASTAYMELSSLRSEDTAVYYCARGELGHWYFDVWGQGTTVTVSSAKTTPPSVYPLAPGSAAQTNSMVTLGCLVKGYFPEPVTVTWNSGSLSSGVHTFPAVLQSDLYTLSSSVTVPSSTWPSETVTCNVAHPASSTKVDKKIVPRDCGCKPCICTVPEVSSVFIFPPKPKDVLTITLTPKVTCVVVDISKDDPEVQFSWFVDDVEVHTAQTQPREEQFNSTFRSVSELPIMHQDWLNGKEFKCRVNSAAFPAPIEKTISKTKGRPKAPQVYTIPPPKEQMAKDKVSLTCMITDFFPEDITVEWQWNGQPAENYKNTQPIMDTDGSYFVYSKLNVQKSNWEAGNTFTCSVLHEGLHNHHTEKSLSHSPGK
light: DIVLTQSPASLALSPGERATLSCRASKSVSTSGYSYIHWYQQKPGQAPRLLIYLASNLDSGVPARFSGSGSGTDFTLTISSLEEEDFATYYCQHSRDLPPTFGQGTKLEIKRTVAAPTVSIFPPSSEQLTSGGASVVCFLNNFYPKDINVKWKIDGSERQNGVLNSWTDQDSKDSTYSMSSTLTLTKDEYERHNSYTCEATHKTSTSPIVKSFNRNEC
notes: murine IgG1 constant regions; also called positive control anti-IL-11 antibody
B2: Hy18A10 (antibody, V domains shown)
VH: QVQLQQPGAELVKPGASVKMSCKASGYKFITYNMDWVKQTPGQGLEWIGTIYPGNGDTSYNQKFKGKATLTADKSSSTAYMQLSSLTSEDSAVYYCARGDLYALDYWGQGTSVTVSS
VL: SIVMTQTPKFLLVSAGDRVTITCKASQSVSNDVAWYQQKPGQSPKLLIYSASNRYTGVPDRFTGSGYGTDFTFTINTVQAEDLAVYFCQHDYSSPYTFGGGTKLEIKR
notes: murine hybridoma antibody
B3: mu18A10 (antibody, V domains shown)
VH: B2 VH
VL: B2 VL
notes: also called recombinant murine antibody 18A10
B4: Hy8C8 (antibody, V domains shown)
VH: DVQLVESGGGLVQPGGSRKLSCAASGFTFSSFGMHWVRQSPERGLEWVAYITSGSNTIYYADTVKGRFTISRDNPENTLFLQMTSLRSEDTAMYYCAREYYSYDEGFAYWGQGTLVTVSA
VL: EIVLTQSPTTMAASPGEKITITCSVSSSISSNYLHWYQQKPGFSPKLLIYRTSNLASGVPARFSGSGSGTSHSLTIDTMEAEDVATYYCQQGVDVPFTFGSGTKLEIKR
notes: murine hybridoma antibody
B5: mu8C8 (antibody, V domains shown)
VH: B4 VH
VL: B4 VL
notes: also called recombinant murine antibody 8C8
B6: IL-11 (Cat. 12225-HNCE, Sino Biological Inc.) (ligand, UniProt P20809 22-199, looked up)
chain: T1 chain with L154H
B7: 3C6-hFc (antibody, human IgG1, kappa)
heavy: not shown
light: DIVLTQSPASLALSPGERATLSCRASKSVSTSGYSYIHWYQQKPGQAPRLLIYLASNLDSGVPARFSGSGSGTDFTLTISSLEEEDFATYYCQHSRDLPPTFGQGTKLEIKRTVAAPSVFIFPPSDEQLKSGTASVVCLLNNFYPREAKVQWKVDNALQSGNSQESVTEQDSKDSTYSLSSTLTLSKADYEKHKVYACEVTHQGLSSPVTKSFNRGEC
notes: human IgG1 constant regions; also called positive control antibody; hz3C6

Legend:
[1] = target: B6; test: competition ELISA: IL-11Rα-His coated, IL-11 + antibody + gp130-Fc
Protocol: (§1) The activity of the recombinant murine anti-IL-11 antibodies for blocking the formation of IL-11/IL-11Rα/GP130 complex was analyzed via competition ELISA. IL-11Rα-His (NP_004503.1, Met1-Val363, C-terminus-6-His Tag) was firstly added into ELISA plates to be coated overnight. Next day, samples were prepared as follows. […] After co-incubating and washing, an HRP conjugated anti-human Fc secondary antibody was added to develop the color which was then detected.

[2] = target: T1, human IL-11 (AAH12506.1, Pro22-Leu199); test: BLI (Octet QKe), antibody on anti-mouse Fc probe, human IL-11 300 nM
Protocol: (§2) When the hybridoma cells were cultured to a certain number, culture supernatants were collected and purified using Protein G affinity chromatography to obtain murine hybridoma antibodies (Hy5C2, Hy8C8, Hy16B5, Hy18A10, Hy18H10, Hy23G6 and Hy29C11). The affinity of the murine antibodies purified from the hybridoma supernatants was determined using an Octet QKe System instrument from Fortebio Inc. with an anti-mouse IgG Fc Capture biosensor to capture the Fc fragments of the antibodies, for which an anti-IL-11 antibody named “3C6-mFc” recombinantly expressed was used at the same concentration as a positive control. Specifically, a hybridoma supernatant was diluted with HBS-EP+ buffer (GE), and was allowed to pass through the surface of AMC probes (Cat: 18-5088, PALL), and so the antibody in the hybridoma supernatant was captured on the surface of the probes; then, human IL-11 diluted in the HBS-EP+ buffer (300 nM) was used as a mobile phase to react with the antibody captured on the surface of the probes. Both the binding and the dissociating were conducted for 300 seconds. When the experiment was finished, data from which response values of blank controls had been deducted was fitted using a 1:1 Langmuir binding model by software, and then kinetic constants for antigen-antibody binding were calculated. Binding signals were detected on the Octet QKe System instrument with Hy5C2, Hy8C8, Hy16B5, Hy18A10, and Hy18H10.

mIL11 = target: T2, mIL11; test: direct ELISA, hybridoma supernatant on plate-immobilised murine IL-11, OD450
Source text: Murine anti-IL-11 hybridoma monoclones 5C2, 8C8, 16B5, 18A10, 18H10, 23G6 and 29C11 were obtained by murine hybridoma technology. The binding activity of the supernatants of those clones to human IL-11 (AAH12506.1, Pro22-Leu199; SEQ ID NO.128) and murine IL-11 (NP_032376.1, Pro22-Leu199; SEQ ID NO.129) immobilized on the surface of ELISA plates was detected via direct ELISA.

[3] = target: T3, human IL-11Rα, full length, stably …; test: cell-based or functional assay
[4] = target: B6; test: competition ELISA, IL-11/IL-11Rα/GP130 complex
Protocol: as §1
Then, light and heavy chain expression vectors for preparing mutant antibodies were constructed according to the method for preparing the recombinant antibodies provided in Example 4, using the mutant sequences shown in Table 3 which accordingly were linked with human IgG1 constant regions (SEQ ID NO. 13, and SEQ ID NO.14). Subsequently, the light chain and the heavy chain were reasonably matched and co-transfected into eukaryotic cells for transient expression, and then recombination protein samples of the mutant antibodies were obtained through affinity purification. The samples obtained were tested for affinity on Fortebio Octet, according to the method for measuring affinity provided in Example 1. Further, using the protocol provided in Example 3, hz8C8 and its affinity matured mutants were analyzed for their activity for blocking the formation of IL-11/IL-11Rα/GP130 complex.

[5] = target: T1, human IL-11 (AAH12506.1, Pro22-Leu199); test: BLI (Octet), antibody on AHC probe, human IL-11 in solution
Protocol: as §2
(§3) The affinity of hz18A10 and hz8C8 was determined according to the method provided in Example 1 using AHC bioprobes for capturing human Fc fragment instead, with other conditions unchanged. A recombinantly expressed anti-IL-11 antibody 3C6-hFc was used at the same concentration as a positive control.

[6] = target: B6; test: cell-based or functional assay
[7] = target: T1, human IL-11 (AAH12506.1, Pro22-Leu199); test: BLI (Octet), antibody on AHC probe, human IL-11 in solution
Protocol: as §2, §3

Row | IC50 [1] [µg/mL] | Kd [2] [nM] | koff [2] [s⁻¹] | kon [2] [M⁻¹ s⁻¹] | Binder | other results
1 | 2.1 | 0.712 | 0.000581 | 816000 | B1 | 
2 |  | 1.09 | 0.00187 | 1.71e+06 | B2 | binding result (mIL11): binds
3 | 1.4 |  |  |  | B3 | 
4 |  | 1.3 | 0.00204 | 1.51e+06 | B4 | binding result (mIL11): binds
5 | 1.61 |  |  |  | B5 | 
6 |  |  |  |  | B6 | EC50 of IL-11 in stimulating the transcriptional expression of STAT3-luc reporter gene [3]: 0.11 ng/mL
7 |  |  |  |  | B7 | IC50 [4]: 1.9 µg/mL; Kd [5]: 0.712 nM; koff [5]: 0.000581 s⁻¹; kon [5]: 816000 M⁻¹ s⁻¹; Blocking activity (IC50), STAT3-luc reporter [6]: 0.342 µg/mL; Kd [7]: 0.712 nM; koff [7]: 0.000581 s⁻¹; kon [7]: 816000 M⁻¹ s⁻¹
